The source of these data is US20230242615A1.

This assay addresses IL4Rα on TF1 cells (UniProt P24394). The experiment in a line: cell-based or functional assay.

B1: Dupilumab (antibody, INN chains, looked up, V domains shown)
VH: EVQLVESGGGLEQPGGSLRLSCAGSGFTFRDYAMTWVRQAPGKGLEWVSSISGSGGNTYYADSVKGRFTISRDNSKNTLYLQMNSLRAEDTAVYYCAKDRLSITIRPRYYGLDVWGQGTTVTVSS
VL: DIVMTQSPLSLPVTPGEPASISCRSSQSLLYSIGYNYLDWYLQKSGQSPQLLIYLGSNRASGVPDRFSGSGSGTDFTLKISRVEAEDVGFYYCMQALQTPYTFGQGTKLEIKR
B1 displayed an IC50 (nM) Blocking IL4, TF-1 cell proliferation of 3.1 nM; an IC50 (nM) Blocking IL13, TF-1 cell proliferation of 20.5 nM; a Relative activity (blocking IL4, against Dupilumab) of 1 fold; a Relative activity (blocking IL13, against Dupilumab) of 1 fold.
